Test results reported in publication PMC2615091.

Biological target: lamin B1 (mouse (endogenous in mouse embryonic fibroblasts)) (UniProt P14733)
Assay: FRET or BRET

UniProt P14733, sequence (P14733 whole entry): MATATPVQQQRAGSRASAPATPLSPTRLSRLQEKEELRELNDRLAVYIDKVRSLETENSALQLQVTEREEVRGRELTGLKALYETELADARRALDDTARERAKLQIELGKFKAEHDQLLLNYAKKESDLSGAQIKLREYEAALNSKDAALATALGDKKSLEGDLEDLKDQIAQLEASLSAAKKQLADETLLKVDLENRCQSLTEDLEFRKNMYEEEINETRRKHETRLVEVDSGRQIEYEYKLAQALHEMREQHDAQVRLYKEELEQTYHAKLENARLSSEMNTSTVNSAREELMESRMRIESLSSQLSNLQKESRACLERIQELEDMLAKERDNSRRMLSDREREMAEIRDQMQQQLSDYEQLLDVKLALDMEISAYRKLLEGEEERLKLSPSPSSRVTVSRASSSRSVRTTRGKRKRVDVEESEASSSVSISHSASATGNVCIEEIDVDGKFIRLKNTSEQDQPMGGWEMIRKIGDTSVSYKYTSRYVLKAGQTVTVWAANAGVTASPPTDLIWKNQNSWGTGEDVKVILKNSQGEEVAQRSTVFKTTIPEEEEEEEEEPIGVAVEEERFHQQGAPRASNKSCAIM

Oct-1–EGFP (from UniProt P14859 1-743) (natural protein)
FRET efficiency: 4.63%
